Test results: US20190322748A1 (Hoffmann-La Roche, published 2019)
Like-named read-outs stand apart in the source and are kept apart here.

Legend:
[1] = biological target: T1, full-length human Tim3 on cells (CHO-K1 stably transfected with plasmid 15312_hTIM3-fl_pUC_Neo) (human, UniProt Q8TDQ0 22-301); assay: cell-based or functional assay
[2] = biological target: T2, biotinylated PD1-ECD-AviHis (human, UniProt Q15116 25-170, biotinylated, site not stated); assay: ELISA on coated biotinylated PD1-ECD-AviHis
T2 construct: also called huPD1; hu PD1

[3] = biological target: T1, full-length human Tim3 on cells (CHO-K1 …); assay: cell-based or functional assay; remark: listed apart in the source
[4] = biological target: T3, biotinylated TIM3-ECD-AviHis (human, UniProt Q8TDQ0 22-202, biotinylated, site not stated); assay: ELISA on coated biotinylated TIM3-ECD-AviHis
T3 construct: also called huTIM3; Hu TIM3

human PD1-ECD = biological target: T4, human PD1-ECD (human, UniProt Q15116 25-170); assay: SPR Biacore T200, Ab captured on anti-human Fc IgG, hu PD1-ECD in solution, 25 C
T4 construct: SPR analyte; also called hu PD1-ECD

monomeric human Tim3-ECD = biological target: T5, monomeric human Tim3-ECD (human, UniProt Q8TDQ0 22-202); assay: SPR Biacore T200, Ab captured on anti-human Fab IgG, hu Tim3-ECD in solution, 25 C
T5 construct: SPR analyte; also called huTim3; hu Tim3-ECD

[5] = biological target: T6, full-length human PD1 on cells (CHO-K1 stably transfected with plasmid 15311_hPD1-fl_pUC_Neo) (human, UniProt Q15116 25-288); assay: cell-based or functional assay
[6] = biological target: T7, Tim3-CLIP (on transiently transfected HEK293 cells) (human, CLIP-tag labelled with Clip-Red); assay: cell-based TR-FRET (Tag-lite) on HEK293 cells co-transfected with PD1-SNAP (Lumi4-Tb) and Tim3-CLIP (Clip-Red), 1 h at 4 C; signal needs both receptors bound at once by one antibody; mean +/- SD, n=3
T7 construct: The plasmid encodes residues 1-202 including the signal peptide; also called CLIP-tagged TIM3

[7] = biological target: T8, PD1-SNAP (on transiently transfected HEK293 cells) (human, SNAP-tag labelled with SNAP-Lumi4-Tb); assay: as above
T8 construct: also called SNAP-tagged PD1

[8] = biological target: T6, full-length human PD1 on cells (CHO-K1 …); assay: cell-based or functional assay; remark: listed apart in the source
[9] = biological target: T7, Tim3-CLIP (on transiently transfected …); assay: cell-based TR-FRET (Tag-lite) on HEK293 cells co-transfected with PD1-SNAP (Lumi4-Tb) and Tim3-CLIP (Clip-Red), 1 h at 4 C; signal needs both receptors bound at once by one antibody; mean +/- SD, n=3; remark: listed apart in the source

B1: Chimeric TIM3-0016 variant (0018) (antibody, human IgG1, V domains shown)
VH: QVTLKESGPGILQPSQTLSLTCSFSGFSLSTSGMSVGWIRQPSGKGLEWLAHIWLNDDVFFNPALKRRLTISKDTSNNQVFLQIASVVTADTATYYCVRANGYLYALDYWGQGISVTVSS
VL: QIVLTQSPAIMSASPGQKVTITCSASSSVNYTQWYQQKLGSSPKLWIYDAFKLAPGVPARFSGSGTGTSYSLTISSMEAEDAASYFCHQWSSYPWTFGGGTKLEIK
notes: also called Chimeric TIM3-0018
- EC50 of IFN-g secretion/release in MLR, donors D1 + D5, with 0.1 µg/ml anti-PD1 mAb [1]: 4.2 nM
- EC50 of IFN-g secretion/release in MLR, donors D2 + D3, with 0.1 µg/ml anti-PD1 mAb [1]: 3.1 nM
- binding result [2]: no binding
- EC50 of IFN-gamma secretion in MLR, donors D2 + D6 [3]: > 274 nM
- EC50 [4]: 0.15 nM

B2: 1+1 PD1TIM3_0389 (based on chimeric PD1-0103 / Tim3-0028) (bispecific antibody, human IgG1, kappa, L234A L235A)
heavy 1: not shown
heavy 2: EVQLQQSVAELVRPGASVKLSCTASGFNIKTTYMHWVKQRPEQGLEWIGRIDPADDNTKYAPKFQGKATITADTSSNTAYLQLSSLTSEDAAIYYCVRDFGYVAWFAYWGQGTLVTFSAASTKGPSVFPLAPSSKSTSGGTAALGCLVEDYFPEPVTVSWNSGALTSGVHTFPAVLQSSGLYSLSSVVTVPSSSLGTQTYICNVNHKPSNTKVDEKVEPKSCDKTHTCPPCPAPEAAGGPSVFLFPPKPKDTLMISRTPEVTCVVVDVSHEDPEVKFNWYVDGVEVHNAKTKPREEQYNSTYRVVSVLTVLHQDWLNGKEYKCKVSNKALGAPIEKTISKAKGQPREPQVCTLPPSRDELTKNQVSLSCAVKGFYPSDIAVEWESNGQPENNYKTTPPVLDSDGSFFLVSKLTVDKSRWQQGNVFSCSVMHEALHNRFTQKSLSLSPGK
light 1: EVILVESGGGLVKPGGSLKLSCAASGFSFSSYTMSWVRQTPEKRLDWVATISGGGRDIYYPDSVKGRFTISRDNAKNTLYLEMSSLMSEDTALYYCVLLTGRVYFALDSWGQGTSVTVSSASVAAPSVFIFPPSDEQLKSGTASVVCLLNNFYPREAKVQWKVDNALQSGNSQESVTEQDSKDSTYSLSSTLTLSKADYEKHKVYACEVTHQGLSSPVTKSFNRGEC
light 2: NIVMTPTPKFLPVSSGDRVTMTCRASQSVDNYVAWYQQKPGQSPKLLIYYASNRYIGVPDRFTGSGSGTDFTFTISSVQVEDLAVYFCQQHYSSPYTFGSGTKLEIKRTVAAPSVFIFPPSDRKLKSGTASVVCLLNNFYPREAKVQWKVDNALQSGNSQESVTEQDSKDSTYSLSSTLTLSKADYEKHKVYACEVTHQGLSSPVTKSFNRGEC
notes: 1+1 CrossMAb Vh-VL: HC1/LC1 form the crossed PD1 arm, HC2/LC2 the TIM3 arm; knobs into holes; also called PD1TIM3-0389 (0357); Bispec AB 0389 (1+1)
- EC50 [2]: 0.13 nM
- Kd (human PD1-ECD): 1.3 nM
- Kd (monomeric human Tim3-ECD): 245 nM
- EC50 of IFN-gamma secretion in MLR, donors D1 + D3 [5]: 2 nM
- EC50 of IFN-gamma secretion in MLR, donors D2 + D4 [5]: 1.9 nM
- binding result [6]: binds
- binding result [7]: binds
- EC50 of IFN-gamma secretion in MLR, donors D2 + D6 [8]: 2.8 nM

B3: 1+1 PD1TIM3_0476 (based on humanized PD1-0103_0312 / Tim3-0438) (bispecific antibody, human IgG1, kappa, L234A L235A)
heavy 1: not shown
heavy 2: EVQLVESGGGLVQPGGSLRLSCAASGFNIKTTYMHWVRQAPGKGLEWVGRIDPADDNTKYAPKFQGKATISADTSKNTAYLQMNSLRAEDTAVYYCVRDFGYVAWFAYWGQGTLVTVSSASTKGPSVFPLAPSSKSTSGGTAALGCLVEDYFPEPVTVSWNSGALTSGVHTFPAVLQSSGLYSLSSVVTVPSSSLGTQTYICNVNHKPSNTKVDEKVEPKSCDKTHTCPPCPAPEAAGGPSVFLFPPKPKDTLMISRTPEVTCVVVDVSHEDPEVKFNWYVDGVEVHNAKTKPREEQYNSTYRVVSVLTVLHQDWLNGKEYKCKVSNKALGAPIEKTISKAKGQPREPQVCTLPPSRDELTKNQVSLSCAVKGFYPSDIAVEWESNGQPENNYKTTPPVLDSDGSFFLVSKLTVDKSRWQQGNVFSCSVMHEALHNHYTQKSLSLSPGK
light 1: EVQLLESGGGLVQPGGSLRLSCAASGFSFSSYTMSWVRQAPGKGLEWVATISGGGRDIYYPDSVKGRFTISRDNSKNTLYLQMNSLRAEDTAVYYCVLLTGRVYFALDSWGQGTLVTVSSASVAAPSVFIFPPSDEQLKSGTASVVCLLNNFYPREAKVQWKVDNALQSGNSQESVTEQDSKDSTYSLSSTLTLSKADYEKHKVYACEVTHQGLSSPVTKSFNRGEC
light 2: DIVMTQSPLSLPVTPGEPASISCRASQSVDNYVAWYLQKPGQSPQLLIYYASNRYIGVPDRFSGSGSGTDFTLKISRVEAEDVGVYYCQQHYSSPYTFGQGTKVEIKRTVAAPSVFIFPPSDRKLKSGTASVVCLLNNFYPREAKVQWKVDNALQSGNSQESVTEQDSKDSTYSLSSTLTLSKADYEKHKVYACEVTHQGLSSPVTKSFNRGEC
notes: 1+1 CrossMAb Vh-VL: HC1/LC1 form the crossed PD1 arm, HC2/LC2 the TIM3 arm; knobs into holes
- Kd (monomeric human Tim3-ECD): 332 nM
- binding result [9]: binds

B4: 1+1 PD1TIM3_0477 (based on humanized PD1-0103_0312 / Tim3-0434) (bispecific antibody, human IgG1, kappa, L234A L235A)
heavy 1: not shown
heavy 2: QITLKESGPTLVKPTQTLTLTCTFSGFSLSTSGMSVGWIRQPPGKGLEWLAHIWLNDDVFFNPALKSRLTITKDTSKNQVVLTMTNMDPVDTATYYCVRANGYLYALDYWGQGTLVTVSSASTKGPSVFPLAPSSKSTSGGTAALGCLVEDYFPEPVTVSWNSGALTSGVHTFPAVLQSSGLYSLSSVVTVPSSSLGTQTYICNVNHKPSNTKVDEKVEPKSCDKTHTCPPCPAPEAAGGPSVFLFPPKPKDTLMISRTPEVTCVVVDVSHEDPEVKFNWYVDGVEVHNAKTKPREEQYNSTYRVVSVLTVLHQDWLNGKEYKCKVSNKALGAPIEKTISKAKGQPREPQVCTLPPSRDELTKNQVSLSCAVKGFYPSDIAVEWESNGQPENNYKTTPPVLDSDGSFFLVSKLTVDKSRWQQGNVFSCSVMHEALHNHYTQKSLSLSPGK
light 1: EVQLLESGGGLVQPGGSLRLSCAASGFSFSSYTMSWVRQAPGKGLEWVATISGGGRDIYYPDSVKGRFTISRDNSKNTLYLQMNSLRAEDTAVYYCVLLTGRVYFALDSWGQGTLVTVSSASVAAPSVFIFPPSDEQLKSGTASVVCLLNNFYPREAKVQWKVDNALQSGNSQESVTEQDSKDSTYSLSSTLTLSKADYEKHKVYACEVTHQGLSSPVTKSFNRGEC
light 2: DIQLTQSPSFLSASVGDRVTITCSASSSVSYTQWYQQKPGKAPKLWIYDAFKLAPGVPSRFSGSGSGTEFTLTISSLQPEDFATYFCHQWSSYPWTFGQGTKLEIKRTVAAPSVFIFPPSDRKLKSGTASVVCLLNNFYPREAKVQWKVDNALQSGNSQESVTEQDSKDSTYSLSSTLTLSKADYEKHKVYACEVTHQGLSSPVTKSFNRGEC
notes: 1+1 CrossMAb Vh-VL: HC1/LC1 form the crossed PD1 arm, HC2/LC2 the TIM3 arm; knobs into holes; also called PD1TIM3_477
- Kd (monomeric human Tim3-ECD): 12 nM
- binding result [9]: binds

B5: 2+2 PD1TIM3_0359 (chimeric PD1-0103 / Tim3-0018) (bispecific antibody, human IgG1, kappa, L234A L235A)
heavy: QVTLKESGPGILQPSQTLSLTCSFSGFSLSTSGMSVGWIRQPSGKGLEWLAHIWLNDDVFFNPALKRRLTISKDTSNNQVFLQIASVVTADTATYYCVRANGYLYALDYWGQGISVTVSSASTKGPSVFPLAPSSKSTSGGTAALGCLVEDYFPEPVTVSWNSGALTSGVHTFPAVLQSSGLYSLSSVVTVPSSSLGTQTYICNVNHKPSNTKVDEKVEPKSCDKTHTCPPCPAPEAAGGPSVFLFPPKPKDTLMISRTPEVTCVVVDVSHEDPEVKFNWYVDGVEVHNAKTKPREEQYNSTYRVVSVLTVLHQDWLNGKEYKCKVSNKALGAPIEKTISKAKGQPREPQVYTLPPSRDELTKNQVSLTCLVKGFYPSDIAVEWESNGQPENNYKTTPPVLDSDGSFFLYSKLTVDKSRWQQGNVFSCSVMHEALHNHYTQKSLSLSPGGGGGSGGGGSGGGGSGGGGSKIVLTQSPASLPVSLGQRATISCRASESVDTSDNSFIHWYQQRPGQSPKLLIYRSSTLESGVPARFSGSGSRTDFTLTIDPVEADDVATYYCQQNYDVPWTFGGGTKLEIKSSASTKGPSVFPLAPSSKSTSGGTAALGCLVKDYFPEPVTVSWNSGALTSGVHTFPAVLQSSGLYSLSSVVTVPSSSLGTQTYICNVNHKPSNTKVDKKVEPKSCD
light 1: QIVLTQSPAIMSASPGQKVTITCSASSSVNYTQWYQQKLGSSPKLWIYDAFKLAPGVPARFSGSGTGTSYSLTISSMEAEDAASYFCHQWSSYPWTFGGGTKLEIKRTVAAPSVFIFPPSDRKLKSGTASVVCLLNNFYPREAKVQWKVDNALQSGNSQESVTEQDSKDSTYSLSSTLTLSKADYEKHKVYACEVTHQGLSSPVTKSFNRGEC
light 2: EVILVESGGGLVKPGGSLKLSCAASGFSFSSYTMSWVRQTPEKRLDWVATISGGGRDIYYPDSVKGRFTISRDNAKNTLYLEMSSLMSEDTALYYCVLLTGRVYFALDSWGQGTSVTVSSASVAAPSVFIFPPSDEQLKSGTASVVCLLNNFYPREAKVQWKVDNALQSGNSQESVTEQDSKDSTYSLSSTLTLSKADYEKHKVYACEVTHQGLSSPVTKSFNRGEC
notes: 2+2 CrossMAb: TIM3 IgG with a crossed PD1 Fab fused by (G4S)4 to the C-terminus of each heavy chain; also called PD1TIM3-0359 (2 + 2)
- EC50 [2]: 0.09 nM
- Kd (human PD1-ECD): 1.8 nM
- Kd (monomeric human Tim3-ECD): 2.3 nM
- binding result [6]: binds
- binding result [7]: binds
- EC50 [4]: 0.11 nM
